# B1: HDV Ribozyme (parent)
# chain: GGCCGGCAUGGUCCCAGCCUCCUCGCUGGCGCCGGCUGGGCAACAUUCCGAGGGGACCGUCCCCUCGGUAAUGGCGAAUGGGACCCA
# Variants of: B1
# Assay: self-cleavage, relative activity (ratio to wild type); higher = more cleavage; co-transcriptional
row,Variant,self-cleavage
1,G17A C84G,0.623
2,G28C C33A,0.106
3,C15G C63A,0.684
4,C13A U72G,0.0639
5,G1A G6U,0
6,C30A U69G,0.469
7,A43C G82A,0.185
8,G67A U79C,0.509
9,G35U A77U,0.175
10,C15A C22U,0.231
11,U46G G82U,0.229
12,G11A U46G,0.128
13,C7A G82U,0.256
14,G39A C44U,0.185
15,G17A G55C,0.742
16,C66A U69G,0.755
17,G82C A87G,0.185
18,G55U C84U,0.743
19,C24U C86A,0.808
20,G52A A56G,0.801
21,C7G A16C,0.151
22,G35A C84U,0.464
23,U23C C49A,0.987
24,G17A G52A,0.831

row,Variant,self-cleavage
1,U27C C30G,0
2,G17C G68C,0.227
3,U12G A70C,0.462
4,C18A A71G,0.0739
5,C7U C21G,0.0739
6,C49A A56U,1.1
7,G53A G74C,0.265
8,G59C C86U,1.01
9,G17U C18U,0.189
10,C19U U46A,0.0875
11,C7U U27C,0.404
12,G25C C26U,0
13,C44U U60G,0.686
14,G5A G81C,0.0791
15,C14U C19U,0.0723
16,G25U G54A,0.086
17,U27C G68A,0.697
18,G31U C32G,0.0978
19,C18G G29A,0.217
20,G6C U12C,0.123
21,G6A C24A,0.283
22,C48G A51U,1.02
23,A56G A77G,1.11
24,G10A G35U,0.499

row,Variant,self-cleavage
1,G55C A70C,0.932
2,G2C C66G,0.0978
3,G1A C61A,0.145
4,G31A C66U,0.387
5,C7A C21U,0
6,U27C C66G,0.692
7,C7G A78G,0.0831
8,G50C C75A,0.242
9,A8U U12G,0.594
10,U9G C66U,0.727
11,G10U U23G,0.0791
12,U46C U60A,0.674
13,C26G U47G,1.08
14,C58G A78U,0.277
15,G50U G76A,1.05
16,A45U C49A,0.748
17,G6U G55C,0.495
18,G10A A51G,0.546
19,U9G U79C,0.748
20,G2C C32A,0.0712
21,G31A C62G,0.317
22,C30U C75A,0.0959
23,C13A C32G,0.0346
24,C7G G52A,0.151

row,Variant,self-cleavage
1,C66A G74C,0.293
2,C7A G68C,0.341
3,C19G U72C,0.101
4,A8G G76C,1.13
5,G5C C24U,0.252
6,G2C G73C,0.106
7,C36A G67A,0.126
8,G39U A45C,0.196
9,U72C C85G,0.453
10,G25U U46G,0.199
11,C19G U20A,0.0314
12,A43U C84G,0.146
13,C14G U23C,0.712
14,C13A G34U,0
15,C4A G59C,0.302
16,G74U A87G,0.473
17,A16U C21G,0.0665
18,G39A A71G,0.332
19,G10A C66A,0.82
20,C18G C62A,0.113
21,U23G U47C,0.332
22,C13G C64A,0.0396
23,G39U G53A,0.789
24,C15A U79C,0.326

row,Variant,self-cleavage
1,C30U C41G,0.212
2,A8C G29U,0.151
3,G2A G54U,0.127
4,G35U C84G,0.185
5,G34C C85U,0.277
6,U9C U65C,1.22
7,A43G G68C,0.253
8,G6A C13A,0.185
9,C21G U60A,0.253
10,U12C U69G,0.485
11,C49G C85G,0.712
12,G10A G28U,0.0848
13,C4G A16G,0.453
14,C32U U69A,1.13
15,C15U C22U,0.35
16,G10A G74A,0.101
17,G17U A56C,0.415
18,G1U G17U,0.309
19,C30A C33U,0.15
20,C19U A42U,0.035
21,C44U A51G,1.04
22,C33U C85U,0.831
23,G10A C13G,0.104
24,U12A A45C,0

row,Variant,self-cleavage
1,G59A C61U,1.11
2,A70U C86G,0.872
3,C75A C85A,0.175
4,U37G C62U,0.308
5,U46A G68A,0.65
6,C58A C66A,0.959
7,A8C U60C,0.489
8,U47G G80A,0.242
9,G25A C41G,0.177
10,U9C A70C,0.997
11,C19A C30U,0.0623
12,G5C A43G,0
13,G1C U79A,0.237
14,G34U C75A,0.107
15,C19G A77C,0.111
16,G29C C58A,0.0755
17,G28U G53A,0.0801
18,G29C C63G,0.0489
19,G2C G59C,0.0923
20,A8G C48U,1.26
21,C13U C19G,0.138
22,C14U G82U,0.494
23,A51C C58U,0.95
24,G59U C86A,0.855

row,Variant,self-cleavage
1,G1U C21G,0.312
2,U12G C30A,0.332
3,C24U G67U,0.372
4,C14G U37G,0
5,G1A C36A,0.154
6,C21G A56U,0.116
7,U9C C41U,1.05
8,C33U A77G,0.554
9,C33G G34U,0.0997
10,G1U C48A,0.465
11,G25A G80A,0.126
12,U23A C66U,0.943
13,C61U,1.01
14,G17A C61G,0.406
15,U12A A43G,0.0831
16,C44U C86A,0.716
17,C36A G53U,0.19
18,C36U C49A,0.795
19,G1U G50C,0.203
20,C14G G59C,0.969
21,C22U U69G,0.759
22,C33U G39C,0
23,A8C U9C,0.962

# — the RNAGym collection of RNA variant scans (doi:10.7554/elife.80360)
